Publication doi:10.1101/2020.02.06.938233 (bioRxiv, 2020)

Molecular target: the molecule itself
Assay: FRET or BRET

B1: UL44(2-433), wild type, as CFP, YFP or RLuc fusion in HEK 293T cells (natural protein)
chain: DRKTRLSEPPTLALRLKPYKTAIQQLRSVIRALKENTTVTFLPTPSLILQTVRSHCVSKITFNSSCLYITDKSFQPKTINNSTPLLGNFMYLTSSKDLTKFYVQDISDLSAKISMCAPDFNMEFSSACVHGQDIVRESENSAVHVDLDFGVVADLLKWIGPHTRVKRNVKKAPCPTGTVQILVHAGPPAIKFILTNGSELEFTANNRVSFHGVKNMRINVQLKNFYQTLLNCAVTKLPCTLRIVTEHDTLLYVASRNGLFAVENFLTEEPFQRGDPFDKNYVGNSGKSRGGGGGGGSLSSLANAGGLHDDGPGLDNDLMNEPMGLGGLGGGGGGGGKKHDRGGGGGSGTRKMSSGGGGGDHDHGLSSKEKYEQHKITSYLTSKGGSGGGGGGGGGGLDRNSGNYFNDAKEESDSEDSVTFEFVPNTKKQKCG
B1 was tested, and the BRET ratio was 0.36 ± 0.1.
